Assay results published in the supplement of paper PMC6757056.
± gives the standard deviation of the averaged measurements.

B1: library; a variant is named by its letters at N, in order (parent)
chain: GCUGUCACCGGUGCUUGGUACGUUAUAUUCAGCCGGUCUGAUGAGUCUNNNNNNAGACGAAACAGC

Assays:
[1] = variants of: B1; assay: normalized RNA/DNA level without ligand (relative to sTRSVctl = 100) (log10 (% of sTRSVctl)); HEK293T overexpressing SLC46A1; higher = less ribozyme self-cleavage, higher mRNA level; details: without (6R,S)-folinic acid; ligand present: no
Summary of the method: (§1)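 Ribozyme switch library plasmids with mCherry reporters (eGFP in certain ligand experiments) went into HEK293T cells at 4 µg per 6-well well. Where ligand was used, it was applied 1 h before transfection, and total RNA was extracted with EDTA 72 h later for reverse transcription, amplification, barcoding and sequencing. RNA level is the RNA-to-DNA read ratio normalized to a spiked-in non-cleaving sequence or to the leading sequences, then scaled and log-transformed. Scaling was ×100 with log10, the leading set comprised 25 sequences, and the cutoff was ≥100 DNA reads.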

[2] = variants of: B1; assay: normalized RNA/DNA level with ligand (relative to sTRSVctl = 100) (log10 (% of sTRSVctl)); HEK293T overexpressing SLC46A1; ligand concentration (+) RNA-Seq: 6 mM; higher = less ribozyme self-cleavage, higher mRNA level; details: with (6R,S)-folinic acid; ligand present: yes
Summary of the method: as §1

Variant	normalized RNA/DNA level without ligand (log10) [1]	normalized RNA/DNA level with ligand (log10) [2]
CGUCUG	2.008 ± 0.01	2.01 ± 0.018
GGUCUG	2.081 ± 0.0057	2.06 ± 0.061
AGUCUG	1.972 ± 0.0057	2.04 ± 0.048
CGUCUU	2.021 ± 0.0084	2 ± 0.039
GGUCUU	2.02 ± 0.027	2.01 ± 0.032
UGUCUU	1.978 ± 0.016	2.03 ± 0.022
AGUCUU	2.017 ± 0.0028	1.99 ± 0.028
GGUGAA	1.989 ± 0.0081	2.011 ± 0.02
AGUGAA	1.933 ± 0.0071	1.99 ± 0.033
UGUGAC	1.949 ± 0.007	1.99 ± 0.016
AGUGAC	2.006 ± 0.0076	1.99 ± 0.04
CGUGAG	1.97 ± 0.029	1.99 ± 0.028
GGUGAG	1.908 ± 0.012	1.99 ± 0.01
AGUGAG	1.767 ± 0.0046	1.96 ± 0.028
CGUGAU	1.96 ± 0.0081	1.993 ± 0.0086
UGUGAU	1.903 ± 0.016	2 ± 0.027
CGUGCA	2.01 ± 0.022	2.03 ± 0.021
UGUGCA	1.9059 ± 0.0006	1.99 ± 0.04
AGUGCA	1.97 ± 0.025	1.996 ± 0.016
CGUGCC	2.068 ± 0.0025	2.01 ± 0.036
GGUGCC	2.029 ± 0.0081	2.03 ± 0.039
UGUGCC	2.023 ± 0.019	2.06 ± 0.029
AGUGCC	2.072 ± 0.014	2.07 ± 0.035

Variant	normalized RNA/DNA level without ligand (log10) [1]	normalized RNA/DNA level with ligand (log10) [2]
CGUGCG	1.974 ± 0.0043	1.99 ± 0.031
GGUGCG	2.0178 ± 0.0012	2.05 ± 0.035
AGUGCG	1.849 ± 0.017	2.01 ± 0.062
CGUGCU	2.05 ± 0.012	2.05 ± 0.052
AGUGCU	2.01 ± 0.0069	2.03 ± 0.027
CGUGGC	2.02 ± 0.027	2 ± 0.073
GGUGGC	1.98 ± 0.023	2.02 ± 0.037
UGUGGC	1.97 ± 0.022	2.019 ± 0.0063
AGUGGC	2.042 ± 0.01	2.04 ± 0.06
CGUGGG	1.8506 ± 0.0006	1.98 ± 0.036
GGUGGG	2.034 ± 0.014	2.059 ± 0.017
AGUGGG	1.921 ± 0.019	2.04 ± 0.035
CGUGGU	1.998 ± 0.0064	1.99 ± 0.029
GGUGGU	2.053 ± 0.016	2.03 ± 0.031
AGUGGU	1.95 ± 0.013	2.02 ± 0.049
CGUGUA	1.981 ± 0.009	2 ± 0.028
GGUGUA	1.972 ± 0.01	2.01 ± 0.02
AGUGUA	1.942 ± 0.007	2 ± 0.05
CGUGUC	2.0808 ± 0.0006	2.07 ± 0.043
GGUGUC	2.051 ± 0.019	2.01 ± 0.028
UGUGUC	2.041 ± 0.019	2.004 ± 0.012
AGUGUC	2.054 ± 0.0091	2 ± 0.046
CGUGUG	1.972 ± 0.015	1.99 ± 0.032

Variant	normalized RNA/DNA level without ligand (log10) [1]	normalized RNA/DNA level with ligand (log10) [2]
GGUGUG	1.98 ± 0.014	2.04 ± 0.034
AGUGUG	1.78 ± 0.018	1.97 ± 0.01
CGUGUU	2.001 ± 0.016	2.03 ± 0.057
GGUGUU	2.029 ± 0.0064	2.02 ± 0.041
UGUGUU	1.907 ± 0.019	1.966 ± 0.019
AGUGUU	2.026 ± 0.011	2.04 ± 0.027
GGUUAA	1.987 ± 0.0045	2.02 ± 0.031
AGUUAA	1.9569 ± 0.00052	1.99 ± 0.024
CGUUAC	2.037 ± 0.015	2.01 ± 0.037
GGUUAC	1.999 ± 0.0035	2 ± 0.038
AGUUAC	2.007 ± 0.0061	1.992 ± 0.013
CGUUAG	2.009 ± 0.0098	2.031 ± 0.006
AGUUAG	1.908 ± 0.017	2 ± 0.038
CGUUAU	1.977 ± 0.0039	2.005 ± 0.016
UGUUAU	1.95 ± 0.028	1.975 ± 0.0073
AGUUAU	1.979 ± 0.0072	2.02 ± 0.018
CGUUCA	2.024 ± 0.004	2.044 ± 0.017
GGUUCA	1.99 ± 0.02	2 ± 0.036
UGUUCA	1.991 ± 0.012	2.0188 ± 0.0011
CGUUCC	2.07 ± 0.026	2.028 ± 0.017
GGUUCC	2.028 ± 0.018	2.03 ± 0.037
AGUUCC	2.06 ± 0.047	2.04 ± 0.059
CGUUCG	2.0527 ± 1.7e-05	2.04 ± 0.047

Variant	normalized RNA/DNA level without ligand (log10) [1]	normalized RNA/DNA level with ligand (log10) [2]
GGUUCG	2.0485 ± 5.4e-05	2.06 ± 0.048
UGUUCG	1.761 ± 0.017	1.96 ± 0.031
AGUUCG	1.953 ± 0.015	2 ± 0.025
CGUUCU	2.07 ± 0.034	2.03 ± 0.034
GGUUCU	2.0626 ± 0.0019	2.05 ± 0.049
UGUUCU	2.031 ± 0.0043	2.08 ± 0.035
AGUUCU	2.02 ± 0.025	2.014 ± 0.011
CGUUGA	2.013 ± 0.013	2.016 ± 0.0024
UGUUGC	1.98 ± 0.024	2.059 ± 0.0084
CGUUGG	1.931 ± 0.019	2.0206 ± 0.0013
GGUUGG	2.042 ± 0.016	2.03 ± 0.031
AGUUGG	1.87 ± 0.022	1.994 ± 0.015
CGUUGU	2.004 ± 0.0073	2 ± 0.047
GGUUGU	2.023 ± 0.0028	2.04 ± 0.051
UGUUGU	1.9049 ± 9.7e-05	2 ± 0.027
CGUUUA	1.99 ± 0.03	2.01 ± 0.034
GGUUUA	2.009 ± 0.018	1.98 ± 0.03
UGUUUA	1.978 ± 0.0041	2.055 ± 0.0056
AGUUUA	1.9996 ± 0.00042	2.03 ± 0.037
CGUUUC	2.06 ± 0.047	2.06 ± 0.06
GGUUUC	2.021 ± 0.011	1.9966 ± 0.0012
UGUUUC	2.063 ± 0.0072	2.04 ± 0.027
AGUUUC	2.02 ± 0.024	2 ± 0.025

Variant	normalized RNA/DNA level without ligand (log10) [1]	normalized RNA/DNA level with ligand (log10) [2]
CGUUUG	2 ± 0.029	1.986 ± 0.0034
AGUUUG	1.958 ± 0.0094	2.023 ± 0.017
CGUUUU	2.032 ± 0.0078	2.037 ± 0.0095
GGUUUU	2 ± 0.021	1.99 ± 0.033
AGUUUU	2.01 ± 0.027	1.98 ± 0.02
CUAAAC	1.983 ± 0.006	1.992 ± 0.018
GUAAAG	1.94 ± 0.015	2 ± 0.027
CUAAAU	1.977 ± 0.0084	1.99 ± 0.034
UUAAAU	1.974 ± 0.0099	2.01 ± 0.024
CUAACA	2.026 ± 0.012	2.03 ± 0.043
GUAACA	2.016 ± 0.0052	1.98 ± 0.042
UUAACA	1.998 ± 0.0047	1.971 ± 0.01
CUAACC	2.007 ± 0.0068	1.98 ± 0.073
UUAACC	2.016 ± 0.0049	2 ± 0.025
CUAACG	2.02 ± 0.018	1.99 ± 0.053
GUAACG	1.997 ± 0.0059	2 ± 0.039
UUAACG	1.934 ± 0.018	1.984 ± 0.019
AUAACG	1.9455 ± 0.0011	2.02 ± 0.033
CUAACU	2.007 ± 0.0098	2 ± 0.035
GUAACU	2.03 ± 0.016	2.03 ± 0.036
UUAACU	2.041 ± 0.0026	2.018 ± 0.0049
CUAAGA	2.017 ± 0.0036	2 ± 0.04
GUAAGA	2.005 ± 0.0094	1.99 ± 0.02
